The target of assay [1] is T1, recombinant human RSPO1-Fc fusion protein (human, UniProt Q2MKA7 21-263).
T1 construct: not shown: human Fc region
The assay can be described thus: SPR (Biacore 2000), RSPO1-Fc immobilized on CM5 chip, antibody injected 100 nM to 0.78 nM. Here is the method: (§1) The KD of h89M5-H2L2 was determined using a Biacore 2000 system from Biacore LifeSciences (GE Healthcare). Recombinant human RSPO1-Fc or mouse RSPO1-Fc proteins were immobilized on CM5 chips using standard amine-based chemistry (NHS/EDC). The antibodies were serially diluted 2-fold from 100 nM to 0.78 nM in HBS-P (0.01M HEPES pH7.4, 0.15M NaCl, 0.005% v/v Surfactant P20) and were injected over the chip surface. Kinetic data were collected over time and were fit using the simultaneous global fit equation to yield affinity constants (KD values) for each antibody.
(Surface plasmon resonance follows binding to a sensor surface in real time, without labels.)

Assay [2] has as its target T2, recombinant mouse RSPO1-Fc protein (mouse, UniProt Q9Z132 21-265, limits assumed).
T2 construct: Construct not described; not shown: Fc; not described
Described as above. Here is the method:
as §1

Where only a bound is given, the exact number is not on record here.

T2 sequence (Q9Z132 21-265 limits assumed): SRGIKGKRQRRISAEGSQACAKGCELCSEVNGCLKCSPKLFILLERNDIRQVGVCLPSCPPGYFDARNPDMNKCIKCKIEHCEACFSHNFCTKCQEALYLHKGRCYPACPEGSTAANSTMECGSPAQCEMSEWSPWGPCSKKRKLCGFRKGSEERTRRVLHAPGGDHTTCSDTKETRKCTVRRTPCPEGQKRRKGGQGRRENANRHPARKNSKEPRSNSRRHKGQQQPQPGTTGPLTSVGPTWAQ
T1 sequence (Q2MKA7 21-263): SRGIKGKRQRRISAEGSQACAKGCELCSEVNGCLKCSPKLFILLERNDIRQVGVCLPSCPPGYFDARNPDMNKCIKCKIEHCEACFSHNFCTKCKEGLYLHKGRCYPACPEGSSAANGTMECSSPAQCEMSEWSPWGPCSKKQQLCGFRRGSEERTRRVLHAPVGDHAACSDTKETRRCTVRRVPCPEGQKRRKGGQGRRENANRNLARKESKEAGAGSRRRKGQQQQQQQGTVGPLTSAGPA

B1: humanized anti-RSPO1 antibody h89M5-H2L2 (antibody, human IgG2, kappa, V domains shown)
VH: QVQLVQSGAEVKKPGASVKVSCKTSGYTFTGYTMHWVRQAPGQRLEWMGGINPNNGGTTYNQNFKGRVTITRDTSASTAYMELSSLRSEDTAVYYCARKEFSDGYYFFAYWGQGTLVTVSS
VL: DIQMTQSPSSLSASVGDRVTITCKASQDVIFAVAWYQQKPGKAPKLLIYWASTRHTGVPSRFSGSGSGTDYTLTISSLQPEDFATYYCQQHYSTPWTFGGGTKVEIKR
notes: also called humanized 89M5; 89M5-H2 with 89M5-L2
What is called Kd is the equilibrium constant for the complex coming apart. Consider B1, for which the Kd in assay [1] and in assay [2] was less than 0.1 nM each time.
